In paper PMC5397151 (Nucleic Acids Research, 2017):

How the values were obtained:
[1] = test system: pyRbkR; assay: HPLC end-point riboflavin kinase assay, FMN detected at […] nm; assay type: biochemical, Pyrobaculum yellowstonensis; details: read-out: apparent Km; saturating CTP (0.2 mM), 5 mM MgCl2, 0.1 M NaCl, HEPES pH 8, 60 °C
[2] = molecular target: T1, taRbkR (Thermoplasma acidophilum, UniProt Q9HJA6 1-220); assay: X-ray crystallography 1.85 A
T1 sequence: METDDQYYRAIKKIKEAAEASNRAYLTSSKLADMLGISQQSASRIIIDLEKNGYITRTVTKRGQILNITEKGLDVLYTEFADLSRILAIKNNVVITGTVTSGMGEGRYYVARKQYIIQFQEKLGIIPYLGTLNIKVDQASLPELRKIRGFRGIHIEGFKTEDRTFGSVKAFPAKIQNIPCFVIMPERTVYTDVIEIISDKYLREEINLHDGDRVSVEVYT

[3] = molecular target: T1, taRbkR; assay: fluorescence polarization
[4] = molecular target: the molecule itself; assay: crystal structure

## Cc1cc2nc3c(=O)[nH]c(=O)nc-3n(C[C@H](O)[C@H](O)[C@H](O)CO)c2cc1C [riboflavin]
[1]
  Km: 73 ± 26 µM

B1: ta ribT operator crystal duplex (dsDNA)
DNA 1: ATTACTAATTCACGAGTAA
DNA 2: TTTACTCGTGAATTAGTAA
[2]
  binding result: binds

B2: ta ribT 35 bp (dsDNA)
DNA 1: TATGCTACTAATTCACGAGTAATTACTCAAATATT
DNA 2: AATATTTGAGTAATTACTCGTGAATTAGTAGCATA
[3]
  apparent K (half saturation): ~16 nM

B3: RbkR protein from Thermoplasma acidophilum (bifunctional riboflavin kinase/regulator) (natural protein)
chain: ETDDQYYRAIKKIKEAAEASNRAYLTSSKLADMLGISQQSASRIIIDLEKNGYITRTVTKRGQILNITEKGLDVLYTEFADLSRILAIKNNVVITGTVTSGMGEGRYYVARKQYIIQFQEKLGIIPYLGTLNIKVDQASLPELRKIRGFRGIHIEGFKTEDRTFGSVKAFPAKIQNIPCFVIMPERTVYTDVIEIISDKYLREEINLHDGDRVSVEVYT
[4]
  stoichiometry N: 2
